4 substances from article PMC5928161 can be followed below.

The assay has as its target FLAG-tagged a3 isoform of the V-ATPase a subunit (mouse) (UniProt Q9JHF5). Kind of assay: co-immunoprecipitation (anti-FLAG IP, anti-V5 Western blot). The settings on record: HEK293T cells; intensity of V5-fused GTP-binding protein co-precipitated with a3 normalised to that of V5-Rab7. For orientation: In western blotting, separated proteins are transferred to a membrane and probed.
Chain of UniProt Q9JHF5 (Q9JHF5 entry or part of it): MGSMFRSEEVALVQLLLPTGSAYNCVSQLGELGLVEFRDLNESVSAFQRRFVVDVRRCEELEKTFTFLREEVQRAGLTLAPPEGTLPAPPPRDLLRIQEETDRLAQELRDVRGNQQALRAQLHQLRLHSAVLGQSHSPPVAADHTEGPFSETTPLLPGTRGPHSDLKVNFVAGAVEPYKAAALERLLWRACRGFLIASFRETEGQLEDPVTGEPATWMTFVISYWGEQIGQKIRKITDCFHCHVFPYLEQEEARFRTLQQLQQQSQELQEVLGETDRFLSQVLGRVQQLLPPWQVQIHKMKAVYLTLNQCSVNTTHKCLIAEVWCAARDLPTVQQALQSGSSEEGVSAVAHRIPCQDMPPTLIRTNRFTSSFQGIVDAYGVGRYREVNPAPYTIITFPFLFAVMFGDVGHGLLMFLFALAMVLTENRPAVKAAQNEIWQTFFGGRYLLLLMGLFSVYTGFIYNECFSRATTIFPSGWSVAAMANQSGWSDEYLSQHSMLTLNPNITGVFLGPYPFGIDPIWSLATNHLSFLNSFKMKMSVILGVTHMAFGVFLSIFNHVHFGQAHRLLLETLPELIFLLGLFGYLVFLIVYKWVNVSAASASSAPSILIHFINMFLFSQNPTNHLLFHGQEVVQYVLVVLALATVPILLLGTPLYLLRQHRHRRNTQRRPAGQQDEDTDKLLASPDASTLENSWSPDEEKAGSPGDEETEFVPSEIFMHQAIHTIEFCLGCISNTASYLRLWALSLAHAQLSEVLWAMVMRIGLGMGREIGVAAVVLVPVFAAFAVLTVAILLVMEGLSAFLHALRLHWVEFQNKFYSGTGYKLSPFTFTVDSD

In the case of H-Ras W C (substitution not printed), the other: relative signal intensity was under 0.1. In turn, H-Ras W D (substitution not printed) returned an other: relative signal intensity of under 0.1.

Ran W C (substitution not printed) gave an other: relative signal intensity of under 0.1. On to Ran W D (substitution not printed), for which the other: relative signal intensity was under 0.1.
